For 38 molecules, binding result and Kd results are on record in patent US5972599, “High affinity nucleic acid ligands of cytokines” (NeXstar Pharmaceuticals, Inc.).

First the molecules themselves.
B1: IL-10 ligand 34 (ssRNA)
RNA: GGGAGACAAGAAUAAACGCUCAACUGAGAUCUCUAAGAGCCUGGACUCAGCUCCGAUUGAUCCUUCGACAGGAGGCUCACAACAGGC
modifications: 2'-F C and U
B2: IL-10 ligand 41 (ssRNA)
RNA: B1 RNA with U61A
modifications: 2'-F C and U
B3: IL-10 ligand 55 (ssRNA)
RNA: GGGAGACAAGAAUAAACGCUCAAACAUCGUAUAAUCUCUAAGAGCCUGGAUAUACGAUGAAUUCGACAGGAGGCUCACAACAGGC
modifications: 2'-F C and U
B4: IL-10 ligand 2 (ssRNA)
RNA: GGGAGACAAGAAUAAACGCUCAAAUCUCUACUGAGCCUGGAUUCGCCAGAAGUUUUAUCACAGUUUCGACAGGAGGCUCACAACAGGC
modifications: 2'-F C and U
B5: IL-10 ligand 10 (ssRNA)
RNA: GGGAGACAAGAAUAAACGCUCAACUGAGAUCUCUAAGAGCCUGGACUCAGCUCCGACUGACCUUCGACAGGAGGCUCACAACAGGC
modifications: 2'-F C and U
B6: IL-10 ligand 56 (ssRNA)
RNA: GGGAGACAAGAAUAAACGCUCAAUCUCUAAGAGCCUGGAUGUCGAGGGGCCAUUUCGCACGCUUCGACAGGAGGCUCACAACAGGC
modifications: 2'-F C and U
B7: IL-10 ligand 54 (ssRNA)
RNA: GGGAGACAAGAAUAAACGCUCAAAUCCCAAUCUCUAAGAGCCUGGAUGACAAUCGCAUUGGGCUUCGACAGGAGGCUCACAACAGGC
modifications: 2'-F C and U
B8: IL-10 ligand 64 (ssRNA)
RNA: GGGAGACAAGAAUAAACGCUCAAACAUCGUAUAACUCUAAGCGCCUGGAUAUACGAUGAAUUCGACAGGAGGCUCACAACAGGC
modifications: 2'-F C and U
B9: IL-10 ligand 64b (ssRNA)
RNA: B8 RNA with C42U
modifications: 2'-F C and U
B10: IL-10 ligand 64a (ssRNA)
RNA: B8 RNA with C42A
modifications: 2'-F C and U
B11: IL-10 ligand 3 (ssRNA)
RNA: GGGAGACAAGAAUAAACGCUCAACUGAGAUCUCUAAGAGCCUGGACUCAGCUACGAUUGAGCGUUUAUUCUUGUUCGACAGGAGGCUCACAACAGGC
modifications: 2'-F C and U
B12: IL-10 ligand 6 (ssRNA)
RNA: GGGAGACAAGAAUAAACGCUCAAAUCCCAAUCUCUAAGAGCCUGGAUAAGAAUGCGCAUUGGGCUUCGACAGGAGGCUCACAACAGGC
modifications: 2'-F C and U
B13: IL-10 ligand 57 (ssRNA)
RNA: B12 RNA with A48G
modifications: 2'-F C and U
B14: IL-10 ligand 59 (ssRNA)
RNA: GGGAGACAAGAAUAAACGCUCAACGUAAAAGUUAUCGAAUCUCUGUGAGCCUGGAUCGAUUACUUCGACAGGAGGCUCACAACAGGC
modifications: 2'-F C and U
B15: IL-10 ligand 68 (ssRNA)
RNA: GGGAGACAAGAAUAAACGCUCAAACAUCGUAUAAUCUCUCUAAGAGCCUGGAAUACGAUGAAUUCGACAGGAGGCUCACAACAGGC
modifications: 2'-F C and U
B16: IL-10 ligand 15 (ssRNA)
RNA: GGGAGACAAGAAUAAACGCUCAAUCUCUAUGAGCCUGGAUCGACGAACUCUCUACGGGCUGUGUUCGACAGGAGGCUCACAACAGGC
modifications: 2'-F C and U
B17: IL-4 2'F/NH2-41 (ssRNA)
RNA: GGGAGACAAGAAUAAACGCUCAAAGUAACGUGGGGAGCCACACGUAAUACGGCACUAAUUCGACAGGAGGCUCACAACAGGC
modifications: 2'-F C, 2'-NH2 U
B18: IL-4 2'F/NH2-19 (ssRNA)
RNA: GGGAGACAAGAAUAAACGCUCAAGUCUUCCAUGGGGAGCCACAUUAACGGCGCAAUACUGAACUUCGACAGGAGGCUCACAACAGGC
modifications: 2'-F C, 2'-NH2 U
B19: IL-4 2'NH2-B18 (ssRNA)
RNA: GGGAGACAAGAAUAAACGCUCAACGAUGGAGCGCCACAUCGCUAUAACGGCAUUUAACAAAAUUUCGACAGGAGGCUCACAACAGGC
modifications: 2'-NH2 C and U
B20: IL-4 2'NH2-B26 (ssRNA)
RNA: GGGAGACAAGAAUAAACGCUCAAAUGGAGAGCCACAUUAACGGCAGCAUAUCACAGUAGGAAUUCGACAGGAGGCUCACAACAGGC
modifications: 2'-NH2 C and U
B21: IL-4 2'NH2-17 (ssRNA)
RNA: GGGAGACAAGAAUAAACGCUCAAGUAUUGGGGAGCCACAUUACAACGGCACAGGCAACCAGGGUUCGACAGGAGGCUCACAACAGGC
modifications: 2'-NH2 C and U
B22: IL-4 2'NH2-27 (ssRNA)
RNA: GGGAGACAAGAAUAAACGCUCAACCUUGUGGGGAGCCACGUAUACGGCCAUAGCAUACCGCAAUUCGACAGGAGGCUCACAACAGGC
modifications: 2'-NH2 C and U
B23: IL-4 2'NH2-B14 (ssRNA)
RNA: GGGAGACAAGAAUAAACGCUCAAUAAAUGGAGAGCCACACUAACGGCGUAUGAAAACACUCAUUCGACAGGAGGCUCACAACAGGC
modifications: 2'-NH2 C and U
B24: IL-4 2'NH2-12 (ssRNA)
RNA: GGGAGACAAGAAUAAACGCUCAAGGACUGGUGAGCCACGUAUACGGUCUUAGGGGCUUGGGCGUUCGACAGGAGGCUCACAACAGGC
modifications: 2'-NH2 C and U
B25: IL-4 2'NH2-B31 (ssRNA)
RNA: B24 RNA with G25A, A26G
modifications: 2'-NH2 C and U
B26: IL-4 2'NH2-31 (ssRNA)
RNA: B24 RNA with G25U, A26G, U40C, G60A
modifications: 2'-NH2 C and U
B27: IL-4 2'F/NH2-8 (ssRNA)
RNA: GGGAGACAAGAAUAAACGCUCAAGUCGGAGCGAUGGAGAGCCACGAUAUACGGUCUGUGCGCUUCGACAGGAGGCUCACAACAGGC
modifications: 2'-F C, 2'-NH2 U
B28: IL-4 2'F/NH2-25 (ssRNA)
RNA: GGGAGACAAGAAUAAACGCUCAAAGAGCCGUUUUGGGGACCCACAGUAACGGGUUUAUGGUAUUCGACAGGAGGCUCACAACAGGC
modifications: 2'-F C, 2'-NH2 U
B29: IL-4 2'NH2-B5 (ssRNA)
RNA: GGGAGACAAGAAUAAACGCUCAACGAUAGUAUACACAUGAUGAUGGGGAGCCACGUGUACGGCUUCGACAGGAGGCUCACAACAGGC
modifications: 2'-NH2 C and U
B30: IL-4 2'NH2-22 (ssRNA)
RNA: GGGAGACAAGAAUAAACGCUCAACAGAUGGUAUCUAGUGGAGAGCCACAUCAACGGCGCAGAUUCGACAGGAGGCUCACAACAGGC
modifications: 2'-NH2 C and U
B31: IL-4 2'F/NH2-13 (ssRNA)
RNA: GGGAGACAAGAAUAAACGCUCAACUCGGGAGCCAGAGUAACAACGGCACUAUAUAAUUUUACUUCGACAGGAGGCUCACAACAGGC
modifications: 2'-F C, 2'-NH2 U
B32: IL-4 2'NH2-B24 (ssRNA)
RNA: GGGAGACAAGAAUAAACGCUCAAAGAUUUAAAGUAUUUGGGGAGCCACAUCAACGGCAUUGUGUUCGACAGGAGGCUCACAACAGGC
modifications: 2'-NH2 C and U
B33: IL-4 2'NH2-B29 (ssRNA)
RNA: GGGAGACAAGAAUAAACGCUCAAUGACUGAACGAUGGUAUUGGAGAGCCACAUCAACGGCAAUUUCGACAGGAGGCUCACAACAGGC
modifications: 2'-NH2 C and U
B34: IL-4 2'NH2-B8 (ssRNA)
RNA: GGGAGACAAGAAUAAACGCUCAAUGUGGGGAGCCACAGUUAACGGCUUCAACUGAUUAGAAUUCGACAGGAGGCUCACAACAGGC
modifications: 2'-NH2 C and U
B35: IL-4 2'NH2-B16 (ssRNA)
RNA: GGGAGACAAGAAUAAACGCUCAAUCACAAGCACCCUUGGGGAGCCACAUUAACGGCCUAGGCUUCGACAGGAGGCUCACAACAGGC
modifications: 2'-NH2 C and U
B36: TNF 19C (ssRNA)
RNA: GGGAGCUCAGAAUAAACGCUCAAUGUCGAUCGUGUCAAGGUCCGUCCUACUUCUUCGACAUGAGGCCCGGAUCCGGC
B37: TNF 9C (ssRNA)
RNA: GGGAGCUCAGAAUAAACGCUCAAAUGGUGGAGGCCAUCUCAAACCCACGACACUUCGACAUGAGGCCCGGAUCCGGC
B38: TNF 15C (ssRNA)
RNA: GGGAGCUCAGAAUAAACGCUCAACUAGUUCAACCGUCCCUUCUAACAACCGUCUUCGACAUGAGGCCCGGAUCCGGC

Where a chain is given by its changes, count along the chain named.

The target of one data set is IL-10 (Homo sapiens, UniProt P22301 P22301:19-178). Kind of data set: filter; group statement, at 250 nM IL-10. The following applies: tags: Bachem or R&D Systems; chain copies: 2.
IL-10, sequence (P22301 19-178, one chain of several): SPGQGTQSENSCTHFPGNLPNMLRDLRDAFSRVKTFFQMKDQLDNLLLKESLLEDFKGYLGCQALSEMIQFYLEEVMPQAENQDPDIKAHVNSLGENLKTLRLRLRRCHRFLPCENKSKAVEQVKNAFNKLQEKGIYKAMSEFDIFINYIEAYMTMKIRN
As to B1, the binding result is listed as “binds”. The same measure, in the same setting: the same measure for B2: “binds”; for B3: “binds”; for B4: “binds”. Consider B5, for which the binding result was “binds”. As to B6, the binding result is “binds”. The same measure, in the same setting: the entry for B7 is “binds”; for B8 it is “binds”; for B9 it is “binds”. Same read-out and setting: the same measure for B10: “binds”; for B11: “binds”. B12: the binding result is “binds”. Still for that read-out and setting: the same measure for B13: “binds”; for B14: “binds”; for B15: “binds”. As to B16, the binding result is “binds”.

The target in a further data set is IL-4 (Homo sapiens, UniProt P05112 P05112:25-153). The experiment in a line: filter; group 1 stated to bind IL-4. As to conditions: tags: R&D Systems.
IL-4, sequence (P05112 25-153, one chain of several): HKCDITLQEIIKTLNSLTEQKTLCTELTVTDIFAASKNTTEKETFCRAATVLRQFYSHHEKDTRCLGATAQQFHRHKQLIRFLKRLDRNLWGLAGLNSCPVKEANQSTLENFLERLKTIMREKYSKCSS
As to B17, the binding result is listed as “binds”.

As to B18, the binding result is given as “binds”. The same measure, in the same setting: the entry for B19 is “binds”; for B20 it is “binds”; for B21 it is “binds”. Same read-out and setting: the same measure for B22: “binds”; for B23: “binds”; for B24: “binds”. Turning to B25, the binding result is reported as “binds”. On the same count and under the same terms, the same measure for B26: “binds”. On the same count and under the same terms, the same measure for B27: “binds”.

For B28, the binding result is reported as “binds”. The same measure, in the same setting: the same measure for B29: “binds”; for B30: “binds”. Same read-out and setting: the same measure for B31: “binds”; for B32: “binds”; for B33: “binds”. On the same count and under the same terms, the same measure for B34: “binds”; for B35: “binds”.

The target in another data set is TNF-alpha (Homo sapiens, UniProt P01375 P01375:77-233). The experiment in a line: filter; class I. As to conditions: tags: Genzyme or R&D Systems; chain copies: 3 inferred.
TNF-alpha, sequence (P01375 77-233, one chain of several): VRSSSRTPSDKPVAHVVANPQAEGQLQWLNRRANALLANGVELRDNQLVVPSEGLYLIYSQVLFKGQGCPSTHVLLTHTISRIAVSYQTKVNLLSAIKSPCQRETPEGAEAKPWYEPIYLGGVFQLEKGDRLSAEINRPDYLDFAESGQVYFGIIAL
For B36, the dissociation constant (Kd) came out at 83 nM. This counts as double-digit nanomolar.

B37: the dissociation constant Kd was determined as 120 nM. B38 yielded a Kd of 124 nM.
